Measurements reported in publication PMC10397247.
Values belong to the binder of their own block, whether it stands above or below them.

What was measured:
P8bHq = molecular target: T1, P8bHq; assay: two-hybrid library CCNG1;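 note: natural log of median RNA to DNA barcode read ratio; higher means stronger binding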
T1 chain: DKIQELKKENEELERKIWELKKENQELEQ

P4bHq = molecular target: T2, P4bHq; assay: two-hybrid library CCNG1;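 note: natural log of median RNA to DNA barcode read ratio; higher means stronger binding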
T2 chain: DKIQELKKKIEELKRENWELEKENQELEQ

P7bHq = molecular target: T3, P7bHq; assay: two-hybrid library CCNG1;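 note: natural log of median RNA to DNA barcode read ratio; higher means stronger binding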
T3 chain: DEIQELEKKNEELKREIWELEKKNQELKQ

P12bHq = molecular target: T4, P12bHq; assay: two-hybrid library CCNG1;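 note: natural log of median RNA to DNA barcode read ratio; higher means stronger binding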
T4 chain: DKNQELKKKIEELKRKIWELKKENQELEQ

P1bHq = molecular target: T5, P1bHq; assay: two-hybrid library CCNG1;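 note: natural log of median RNA to DNA barcode read ratio; higher means stronger binding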
T5 chain: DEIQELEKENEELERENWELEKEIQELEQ

P9bHq = molecular target: T6, P9bHq; assay: two-hybrid library CCNG1;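 note: natural log of median RNA to DNA barcode read ratio; higher means stronger binding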
T6 chain: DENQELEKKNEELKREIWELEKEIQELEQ

P5bHq = molecular target: T7, P5bHq; assay: two-hybrid library CCNG1
T7 chain: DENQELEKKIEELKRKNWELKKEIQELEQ

P11bHq = molecular target: T8, P11bHq; assay: two-hybrid library CCNG1
T8 chain: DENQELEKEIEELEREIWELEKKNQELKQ

P3bHq = molecular target: T9, P3bHq; assay: two-hybrid library CCNG1
T9 chain: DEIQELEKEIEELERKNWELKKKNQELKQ

P10bHq = molecular target: T10, P10bHq; assay: two-hybrid library CCNG1
T10 chain: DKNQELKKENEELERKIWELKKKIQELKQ

P6bHq = molecular target: T11, P6bHq; assay: two-hybrid library CCNG1
T11 chain: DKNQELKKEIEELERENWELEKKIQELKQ

Core_NIIN-es_KKEE = molecular target: T12, Core_NIIN-es_KKEE; assay: two-hybrid library CCmax; conditions: mean of both orientations
T12 chain: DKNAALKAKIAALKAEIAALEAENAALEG

P4SHb = molecular target: T13, P4SHb; assay: two-hybrid library CCNG1
T13 chain: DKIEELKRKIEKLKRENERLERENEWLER

P9SHb = molecular target: T14, P9SHb; assay: two-hybrid library CCNG1
T14 chain: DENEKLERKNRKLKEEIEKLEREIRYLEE

P10SHb = molecular target: T15, P10SHb; assay: two-hybrid library CCNG1
T15 chain: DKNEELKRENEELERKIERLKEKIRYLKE

P7SHb = molecular target: T16, P7SHb; assay: two-hybrid library CCNG1
T16 chain: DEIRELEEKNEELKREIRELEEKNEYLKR

P6SHb = molecular target: T17, P6SHb; assay: two-hybrid library CCNG1
T17 chain: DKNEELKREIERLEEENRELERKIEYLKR

P12SHb = molecular target: T18, P12SHb; assay: two-hybrid library CCNG1
T18 chain: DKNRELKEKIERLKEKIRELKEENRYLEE

P5SHb = molecular target: T19, P5SHb; assay: two-hybrid library CCNG1
T19 chain: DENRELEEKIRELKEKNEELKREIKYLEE

P1SHb = molecular target: T20, P1SHb; assay: two-hybrid library CCNG1
T20 chain: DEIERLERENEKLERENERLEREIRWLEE

P11SHb = molecular target: T21, P11SHb; assay: two-hybrid library CCNG1
T21 chain: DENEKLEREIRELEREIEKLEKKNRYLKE

P8SHb = molecular target: T22, P8SHb; assay: two-hybrid library CCNG1
T22 chain: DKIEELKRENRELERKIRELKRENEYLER

P3SHb = molecular target: T23, P3SHb; assay: two-hybrid library CCNG1
T23 chain: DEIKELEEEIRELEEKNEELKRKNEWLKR

P2SHb = molecular target: T24, P2SHb; assay: two-hybrid library CCNG1
T24 chain: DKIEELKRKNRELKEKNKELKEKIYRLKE

4H949-bN = molecular target: T25, 4H949-bN; assay: two-hybrid library CCNG1
T25 chain: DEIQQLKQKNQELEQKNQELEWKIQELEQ

4H3041-bN = molecular target: T26, 4H3041-bN; assay: two-hybrid library CCNG1
T26 chain: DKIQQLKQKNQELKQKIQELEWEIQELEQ

4H3381-bN = molecular target: T27, 4H3381-bN; assay: two-hybrid library CCNG1
T27 chain: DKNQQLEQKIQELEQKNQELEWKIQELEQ

4H932-bN = molecular target: T28, 4H932-bN; assay: two-hybrid library CCNG1
T28 chain: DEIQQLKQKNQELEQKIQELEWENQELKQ

P10A-bN = molecular target: T29, P10A-bN; assay: two-hybrid library CCNG1
T29 chain: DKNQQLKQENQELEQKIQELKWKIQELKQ

4H2859-bN = molecular target: T30, 4H2859-bN; assay: two-hybrid library CCNG1
T30 chain: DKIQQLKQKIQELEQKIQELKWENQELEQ

4H2760-bN = molecular target: T31, 4H2760-bN; assay: two-hybrid library CCNG1
T31 chain: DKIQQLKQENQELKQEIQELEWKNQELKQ

4H3297-bN = molecular target: T32, 4H3297-bN; assay: two-hybrid library CCNG1
T32 chain: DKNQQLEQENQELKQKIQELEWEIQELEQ

4H349-bN = molecular target: T33, 4H349-bN; assay: two-hybrid library CCNG1
T33 chain: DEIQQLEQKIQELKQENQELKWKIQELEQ

4H570-bA = molecular target: T34, 4H570-bA; assay: two-hybrid library CCNG1
T34 chain: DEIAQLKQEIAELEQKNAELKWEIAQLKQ

4H56-bN = molecular target: T35, 4H56-bN; assay: two-hybrid library CCNG1
T35 chain: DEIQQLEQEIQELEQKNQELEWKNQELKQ

4H730-bN = molecular target: T36, 4H730-bN; assay: two-hybrid library CCNG1
T36 chain: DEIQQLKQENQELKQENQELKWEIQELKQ

4H264-bN = molecular target: T37, 4H264-bN; assay: two-hybrid library CCNG1
T37 chain: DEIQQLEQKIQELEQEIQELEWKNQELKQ

4H796-bN = molecular target: T38, 4H796-bN; assay: two-hybrid library CCNG1
T38 chain: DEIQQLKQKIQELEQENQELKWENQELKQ

4H3364-bN = molecular target: T39, 4H3364-bN; assay: two-hybrid library CCNG1
T39 chain: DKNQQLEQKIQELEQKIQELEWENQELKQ

4H2931-bN = molecular target: T40, 4H2931-bN; assay: two-hybrid library CCNG1
T40 chain: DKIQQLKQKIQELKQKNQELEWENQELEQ

Core_IINI-es_KKEE = molecular target: T41, Core_IINI-es_KKEE; assay: two-hybrid library CCmax; conditions: mean of both orientations
T41 chain: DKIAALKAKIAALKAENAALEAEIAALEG

- interaction score (P8bHq): -0.382
- interaction score (P4bHq): 0.266
- interaction score (P7bHq): 1.54
- interaction score (P12bHq): 1.08
- interaction score (P1bHq): 1.43
- interaction score (P9bHq): 1
- interaction score (P5bHq): -0.0841
- interaction score (P11bHq): -1.18
- interaction score (P3bHq): -0.901
- interaction score (P10bHq): -0.704
- interaction score (P6bHq): 1.3
B1: P10bHq (peptide)
chain: DKNQELKKENEELERKIWELKKKIQELKQ

- interaction score (Core_NIIN-es_KKEE): 2.03
B2: Core_NIIN-es_EEKK (peptide)
chain: DENAALEAEIAALEAKIAALKAKNAALKG

- interaction score (P4SHb): -0.49
- interaction score (P9SHb): 1.97
- interaction score (P10SHb): 0.734
- interaction score (P7SHb): -0.582
- interaction score (P6SHb): 1.07
- interaction score (P12SHb): -0.4
- interaction score (P5SHb): 0.808
- interaction score (P1SHb): -1.44
- interaction score (P11SHb): 1.08
- interaction score (P8SHb): -0.0171
- interaction score (P3SHb): -1.86
- interaction score (P2SHb): 0.782
B3: P10SHb (peptide)
chain: DKNEELKRENEELERKIERLKEKIRYLKE

- interaction score (4H949-bN): -0.338
- interaction score (4H3041-bN): 1.54
- interaction score (4H3381-bN): 0.605
- interaction score (4H932-bN): -0.218
- interaction score (P10A-bN): -2.47
- interaction score (4H2859-bN): 1.92
- interaction score (4H2760-bN): -0.23
- interaction score (4H3297-bN): 0.44
- interaction score (4H349-bN): 0.605
- interaction score (4H570-bA): -2.9
- interaction score (4H56-bN): 0.479
- interaction score (4H730-bN): 0.137
- interaction score (4H264-bN): -0.816
- interaction score (4H796-bN): -0.162
- interaction score (4H3364-bN): 0.517
- interaction score (4H2931-bN): 1.31
B4: 4H264-bN (peptide)
chain: DEIQQLEQKIQELEQEIQELEWKNQELKQ

- interaction score (Core_IINI-es_KKEE): 2.25
B5: Core_IINI-es_EEKK (peptide)
chain: DEIAALEAEIAALEAKNAALKAKIAALKG
